Legend:
[1] = substrate: C[C@]12CC[C@@H]3c4ccc(O)cc4CC[C@H]3[C@@H]1CC[C@@H]2O[C@@H]1O[C@H](C(=O)O)[C@@H](O)[C@H](O)[C@H]1O; experiment: (§1) TP_TRANSPORTER: uptake in brush-border membrane vesicle from Caco-2 cells; type: functional, cell membranes
[2] = substrate: N[C@@H](CCC(=O)N[C@H](CSc1ccc([N+](=O)[O-])cc1[N+](=O)[O-])C(=O)NCC(=O)O)C(=O)O; experiment: as §1; type: functional, cell membranes

B1: ATP-binding cassette sub-family C member 2 (Homo sapiens) (protein)
chain: MLEKFCNSTFWNSSFLDSPEADLPLCFEQTVLVWIPLGYLWLLAPWQLLHVYKSRTKRSSTTKLYLAKQVFVGFLLILAAIELALVLTEDSGQATVPAVRYTNPSLYLGTWLLVLLIQYSRQWCVQKNSWFLSLFWILSILCGTFQFQTLIRTLLQGDNSNLAYSCLFFISYGFQILILIFSAFSENNESSNNPSSIASFLSSITYSWYDSIILKGYKRPLTLEDVWEVDEEMKTKTLVSKFETHMKRELQKARRALQRRQEKSSQQNSGARLPGLNKNQSQSQDALVLEDVEKKKKKSGTKKDVPKSWLMKALFKTFYMVLLKSFLLKLVNDIFTFVSPQLLKLLISFASDRDTYLWIGYLCAILLFTAALIQSFCLQCYFQLCFKLGVKVRTAIMASVYKKALTLSNLARKEYTVGETVNLMSVDAQKLMDVTNFMHMLWSSVLQIVLSIFFLWRELGPSVLAGVGVMVLVIPINAILSTKSKTIQVKNMKNKDKRLKIMNEILSGIKILKYFAWEPSFRDQVQNLRKKELKNLLAFSQLQCVVIFVFQLTPVLVSVVTFSVYVLVDSNNILDAQKAFTSITLFNILRFPLSMLPMMISSMLQASVSTERLEKYLGGDDLDTSAIRHDCNFDKAMQFSEASFTWEHDSEATVRDVNLDIMAGQLVAVIGPVGSGKSSLISAMLGEMENVHGHITIKGTTAYVPQQSWIQNGTIKDNILFGTEFNEKRYQQVLEACALLPDLEMLPGGDLAEIGEKGINLSGGQKQRISLARATYQNLDIYLLDDPLSAVDAHVGKHIFNKVLGPNGLLKGKTRLLVTHSMHFLPQVDEIVVLGNGTIVEKGSYSALLAKKGEFAKNLKTFLRHTGPEEEATVHDGSEEEDDDYGLISSVEEIPEDAASITMRRENSFRRTLSRSSRSNGRHLKSLRNSLKTRNVNSLKEDEELVKGQKLIKKEFIETGKVKFSIYLEYLQAIGLFSIFFIILAFVMNSVAFIGSNLWLSAWTSDSKIFNSTDYPASQRDMRVGVYGALGLAQGIFVFIAHFWSAFGFVHASNILHKQLLNNILRAPMRFFDTTPTGRIVNRFAGDISTVDDTLPQSLRSWITCFLGIISTLVMICMATPVFTIIVIPLGIIYVSVQMFYVSTSRQLRRLDSVTRSPIYSHFSETVSGLPVIRAFEHQQRFLKHNEVRIDTNQKCVFSWITSNRWLAIRLELVGNLTVFFSALMMVIYRDTLSGDTVGFVLSNALNITQTLNWLVRMTSEIETNIVAVERITEYTKVENEAPWVTDKRPPPDWPSKGKIQFNNYQVRYRPELDLVLRGITCDIGSMEKIGVVGRTGAGKSSLTNCLFRILEAAGGQIIIDGVDIASIGLHDLREKLTIIPQDPILFSGSLRMNLDPFNNYSDEEIWKALELAHLKSFVASLQLGLSHEVTEAGGNLSIGQRQLLCLGRALLRKSKILVLDEATAAVDLETDNLIQTTIQNEFAHCTVITIAHRLHTIMDSDKVMVLDNGKIIECGSPEELLQIPGPFYFMAKEAGIENVNSTKF
Q: B1 was tested. Which Km [1] did it give?
A: 9.4 µM

Q: And the Km [2]?
A: 16.9 µM

From ChEMBL document CHEMBL2074293, “Function and expression of multidrug resistance-associated protein family in human colon adenocarcinoma cells (Caco-2)” (J Pharmacol Exp Ther, 2000)
